The nature of the data set: protein stability index of a GFP-peptide fusion (GPS, HEK-293T) (PSI 1-6); higher = more stable. As to conditions: c terminus: a fixed tail appended.

± gives the standard deviation.
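Also: 24-mer peptide tiles fused after GFP, lentivirally expressed, FACS-sorted into six equal bins by GFP/DsRed ratio, decoded by Illumina sequencing, PSI is the read-weighted mean bin number.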

Consider EYNYDWWEKKPFSEDVNWGYEKRN [CHGB], for which the protein stability index stood at 3.17 ± 0.21 (treatment: DMSO) and 3.19 ± 0.23 (treatment: MLN4924 1 uM, 8 h).

On to NLLRDDRVLQNLLTIEERYLPQCS [CCND2], for which the protein stability index turned out to be 2.49 ± 0.26 (treatment: DMSO) and 2.58 ± 0.35 (treatment: MLN4924 1 uM, 8 h).

Turning to LAFVIVLLAHRLRRWHKSRLLQAS [PCDHGA10], the protein stability index by setting is: (treatment: DMSO) 2.15 ± 0.48; (treatment: MLN4924 1 uM, 8 h) 2.21 ± 0.38.

Regarding PPWFEGLESRFQSKSGYLRYSCES [DFFB], the protein stability index is, setting by setting: (treatment: DMSO) 2.51 ± 0.19; (treatment: MLN4924 1 uM, 8 h) 2.54 ± 0.2.

Turning to KEERKTEVVMNSQQTPVGTPKDKR [PALM], the protein stability index worked out at 5.43 ± 0.32 (treatment: DMSO) and 5.36 ± 0.32 (treatment: MLN4924 1 uM, 8 h).

On to NPTEPATIIFTAAREGRETLKCLS [TOR1AIP2], for which the protein stability index came to 3.71 ± 0.25 (treatment: DMSO) and 3.69 ± 0.12 (treatment: MLN4924 1 uM, 8 h).

For the sequence AIDQYRVCQEVLERSRDVVDDVSV [RHOBTB2], the protein stability index came out at 4.66 ± 0.31 (treatment: DMSO) and 4.78 ± 0.13 (treatment: MLN4924 1 uM, 8 h).

Take LLPDGRHAVVEVEDVPLAAKLVDL [TAF7L]: the protein stability index runs as follows: (treatment: DMSO) 4.28 ± 0.3; (treatment: MLN4924 1 uM, 8 h) 4.22 ± 0.18.

As to EAPSTASSTPDSTEGGNDDSDFRE [RTN2], the protein stability index runs as follows: (treatment: DMSO) 5.57 ± 0.35; (treatment: MLN4924 1 uM, 8 h) 5.63 ± 0.23.

For the sequence VCQEVLERSRDVVDDVSVSLRLWD [RHOBTB2], the protein stability index runs as follows: (treatment: DMSO) 3.31 ± 0.19; (treatment: MLN4924 1 uM, 8 h) 3.44 ± 0.37.

On to TGGADAYYEMGIHCWDVAGAGIIV [IMPA1], for which the protein stability index (treatment: DMSO) is 2.83 ± 0.79 and the protein stability index (treatment: MLN4924 1 uM, 8 h) worked out at 2.97 ± 0.85.

In the case of LETMARNEVIADINCKGRSKSNLG [OSBPL1A], the protein stability index is 4.46 ± 0.39 (treatment: DMSO) and 4.38 ± 0.39 (treatment: MLN4924 1 uM, 8 h).

In turn, FLKQGDSADETTAHKTEEENSDSD [CMTM3] yielded a protein stability index (treatment: DMSO) of 5.63 ± 0.25 and a protein stability index (treatment: MLN4924 1 uM, 8 h) of 5.58 ± 0.43.

With VNCISPLKYFSDFRPYFTIHDSEF [DENND6A], the protein stability index runs as follows: (treatment: DMSO) 2.27 ± 0.68; (treatment: MLN4924 1 uM, 8 h) 1.92 ± 0.19.

For the sequence AFHEPQVGLIQAAQQLLCDEQAPQ [DFFB], the protein stability index is 4.64 ± 0.18 (treatment: DMSO) and 4.92 ± 0.18 (treatment: MLN4924 1 uM, 8 h).

On to AGKLRLLREMCALSFQEELLYWGI [KCNG1], for which the protein stability index was found to be 2.88 ± 0.5 (treatment: DMSO) and 2.34 ± 0.24 (treatment: MLN4924 1 uM, 8 h).

With HCIQQILESVNHCHLNGIVHRDLK [CAMK2D], the protein stability index is, setting by setting: (treatment: DMSO) 2.26 ± 0.047; (treatment: MLN4924 1 uM, 8 h) 2.36 ± 0.5.

As for IEGLKEELAYLRKNHEEEMLALRG [KRT16], the protein stability index by setting is: (treatment: DMSO) 3.79 ± 0.35; (treatment: MLN4924 1 uM, 8 h) 3.77 ± 0.32.

In the case of TLYRNRSNLETIFRIIDSDHSGFI [PPEF2], the protein stability index is 2.06 ± 0.4 (treatment: DMSO) and 1.99 ± 0.099 (treatment: MLN4924 1 uM, 8 h).

As to AYGHRQCLELVSCFVLFSLTHTHT [ANKRD44], the protein stability index is 2.52 ± 1 (treatment: DMSO) and 3.3 ± 0.47 (treatment: MLN4924 1 uM, 8 h).

Turning to TSALFWEQHDLVYGDWTSGENSDG [CLPTM1], the protein stability index reads like this: (treatment: DMSO) 4.17 ± 0.18; (treatment: MLN4924 1 uM, 8 h) 4.34 ± 0.41.

As to TVDKEVEIRKKVLKIYNKREEDFP [MNAT1], the protein stability index is, setting by setting: (treatment: DMSO) 4.08 ± 0.17; (treatment: MLN4924 1 uM, 8 h) 4.27 ± 0.12.

Consider SSISSTSNEQLKVTQEPRAKKGRR [ZMYND11], for which the protein stability index reads like this: (treatment: DMSO) 5.24 ± 0.48; (treatment: MLN4924 1 uM, 8 h) 5.45 ± 0.077.

As to SDTPYDSSASYEKENEMMKSHVMD [IKZF1], the protein stability index runs as follows: (treatment: DMSO) 5.2 ± 0.31; (treatment: MLN4924 1 uM, 8 h) 5.13 ± 0.2.

Regarding RMQYAPDLMKRLRFALIPAPELVE [KLHL14], the protein stability index is, setting by setting: (treatment: DMSO) 2.25 ± 0.1; (treatment: MLN4924 1 uM, 8 h) 2.05 ± 0.088.

With CGYEGCRYGCGHRGCGDGCCCPSC [KRTAP19-2], the protein stability index is, setting by setting: (treatment: DMSO) 3.72 ± 0.31; (treatment: MLN4924 1 uM, 8 h) 3.72 ± 0.39.

For the sequence EDAEGEEEEEEEEEEEDDLSELPP [FKBP8], the protein stability index worked out at 5.67 ± 0.19 (treatment: DMSO) and 5.56 ± 0.18 (treatment: MLN4924 1 uM, 8 h).

Turning to NQGYLSEAGASLVDQKLELNIVPR [PI4K2A], the protein stability index is, setting by setting: (treatment: DMSO) 4.05 ± 0.23; (treatment: MLN4924 1 uM, 8 h) 4.33 ± 0.28.

Take TIRSGISPNLNVVDGRLTYPTCGI [SASS6]: the protein stability index (treatment: DMSO) amounted to 2.86 ± 0.42 and the protein stability index (treatment: MLN4924 1 uM, 8 h) came to 3.02 ± 0.26.

As for TLDGYGIHPKSIDLDNYFTARRLL [NFE2L1], the protein stability index reads like this: (treatment: DMSO) 2.37 ± 0.41; (treatment: MLN4924 1 uM, 8 h) 2.28 ± 0.26.

With EDELSLVKGSRVTVMEKCSDGWWR [NCK2], the protein stability index came to 3.68 ± 0.18 (treatment: DMSO) and 3.69 ± 0.32 (treatment: MLN4924 1 uM, 8 h).

For the sequence LVSRHDPASRRRVVEEVRRRATSG [LPCAT4], the protein stability index (treatment: DMSO) was determined as 4.5 ± 0.19 and the protein stability index (treatment: MLN4924 1 uM, 8 h) is 4.49 ± 0.23.

Sequence KVLFALCALNALTTTVCLVAAALR [FAM189A2] showed a protein stability index (treatment: DMSO) of 3.13 ± 0.6 and a protein stability index (treatment: MLN4924 1 uM, 8 h) of 3.3 ± 0.21.

SVTLEDVTPKKSPPPKTNLTPGQS [FAN1]: the protein stability index (treatment: DMSO) came to 5.11 ± 0.18 and the protein stability index (treatment: MLN4924 1 uM, 8 h) is 5.24 ± 0.34.

LAATQGLAHMIAECKKLFQVPEEM [DLC1]: the protein stability index by setting is: (treatment: DMSO) 2.52 ± 0.33; (treatment: MLN4924 1 uM, 8 h) 2.47 ± 0.37.

In the case of EAFQLYQEAAQLDMLLEKLPQVAE [FLOT1], the protein stability index is, setting by setting: (treatment: DMSO) 2.43 ± 0.37; (treatment: MLN4924 1 uM, 8 h) 2.69 ± 0.44.

(Values after the supplement of paper PMC10567573.)
